From article PMC12636746, “Structural Basis for TRF2-RAP1 Recruitment by EBNA1 at the EBV origin of replication” (Research Square, 2025)

B1: pre-assembled full length TRF2/Rap1 complex (complex)
chain 1: MAAGAGTAGPASGPGVVRDPAASQPRKRPGREGGEGARRSDTMAGGGGSSDGSGRAAGRRASRSSGRARRGRHEPGLGGPAERGAGEARLEEAVNRWVLKFYFHEALRAFRGSRYGDFRQIRDIMQALLVRPLGKEHTVSRLLRVMQCLSRIEEGENLDCSFDMEAELTPLESAINVLEMIKTEFTLTEAVVESSRKLVKEAAVIICIKNKEFEKASKILKKHMSKDPTTQKLRNDLLNIIREKNLAHPVIQNFSYETFQQKMLRFLESHLDDAEPYLLTMAKKALKSESAASSTGKEDKQPAPGPVEKPPREPARQLRNPPTTIGMMTLKAAFKTLSGAQDSEAAFAKLDQKDLVLPTQALPASPALKNKRPRKDENESSAPADGEGGSELQPKNKRMTISRLVLEEDSQSTEPSAGLNSSQEAASAPPSKPTVLNQPLPGEKNPKVPKGKWNSSNGVEEKETWVEEDELFQVQAAPDEDSTTNITKKQKWTVEESEWVKAGVQKYGEGNWAAISKNYPFVNRTAVMIKDRWRTMKRLGMN
chain 2: MAEAMDLGKDPNGPTHSSTLFVRDDGSSMSFYVRPSPAKRRLSTLILHGGGTVCRVQEPGAVLLAQPGEALAEASGDFISTQYILDCVERNERLELEAYRLGPASAADTGSEAKPGALAEGAAEPEPQRHAGRIAFTDADDVAILTYVKENARSPSSVTGNALWKAMEKSSLTQHSWQSLKDRYLKHLRGQEHKYLLGDAPVSPSSQKLKRKAEEDPEAADSGEPQNKRTPDLPEEEYVKEEIQENEEAVKKMLVEATREFEEVVVDESPPDFEIHITMCDDDPPTPEEDSETQPDEEEEEEEEKVSQPEVGAAIKIIRQLMEKFNLDLSTVTQAFLKNSGELEATSAFLASGQRADGYPIWSRQDDIDLQKDDEDTREALVKKFGAQNVARRIEFRKK
notes: source: E. coli, each protein purified; complex pre-assembled and purified by glycerol gradient; not shown: His6-SUMO, N-terminal, cleaved
B2: TRF2 homodimerization domain (TRFH), residues 85–287 of TRF2 (domain or fragment, UniProt Q15554 85-287, looked up)
chain: AGEARLEEAVNRWVLKFYFHEALRAFRGSRYGDFRQIRDIMQALLVRPLGKEHTVSRLLRVMQCLSRIEEGENLDCSFDMEAELTPLESAINVLEMIKTEFTLTEAVVESSRKLVKEAAVIICIKNKEFEKASKILKKHMSKDPTTQKLRNDLLNIIREKNLAHPVIQNFSYETFQQKMLRFLESHLDDAEPYLLTMAKKALK
notes: also called TRFH domain; TRF2 dimerization domain; source: E. coli (all constructs), purified
B4: EBNA1 DNA binding domain (DBD) aa 401–607 (domain or fragment)
chain: GRRPFFHPVGEADYFEYHQEGGPDGEPDVPPGAIEQGPADDPGEGPSTGPRGQGDGGRRKKGGWFGKHRGQGGSNPKFENIAEGLRALLARSHVERTTDEGTWVAGVFVYGGSKTSLYNLRRGTALAIPQCRLTPLSRLPFGMAPGPGPQPGPLRESIVCYFMVFLQTHIFAEVLKDAIKDLVMTKPAPTCNIRVTVCSFDDGVDLP
notes: also called EBNA1 DBD; EBNA1(401–607); source: E. coli, autoinduction medium, purified (Ni-NTA, Superdex 75); not shown: His6-SUMO, N-terminal, cleaved

What was measured:
Conditions in all cases: both partners purified
[1] = target: T1, EBNA1Δ90–325 3x (E495A D499A E500A) (Epstein-Barr virus, UniProt P03211 1-641, Δ90–325 | E495A | D499A | E500A); assay: native gel or EMSA; pre-assembled TRF2-Rap1 complex (glycerol gradient) serially diluted onto pre-assembled ½DS-EBNA1 complex (10X stock 200 nM EBNA1, 50 nM ½DS DNA); binding buffer with 300 mM KCl; 1.4% agarose gel
T1 construct: also called 3x mutant EBNA1; source: E. coli, autoinduction medium, purified (Ni-NTA, Superdex 75); not shown: His6-SUMO, N-terminal, cleaved
T1 sequence: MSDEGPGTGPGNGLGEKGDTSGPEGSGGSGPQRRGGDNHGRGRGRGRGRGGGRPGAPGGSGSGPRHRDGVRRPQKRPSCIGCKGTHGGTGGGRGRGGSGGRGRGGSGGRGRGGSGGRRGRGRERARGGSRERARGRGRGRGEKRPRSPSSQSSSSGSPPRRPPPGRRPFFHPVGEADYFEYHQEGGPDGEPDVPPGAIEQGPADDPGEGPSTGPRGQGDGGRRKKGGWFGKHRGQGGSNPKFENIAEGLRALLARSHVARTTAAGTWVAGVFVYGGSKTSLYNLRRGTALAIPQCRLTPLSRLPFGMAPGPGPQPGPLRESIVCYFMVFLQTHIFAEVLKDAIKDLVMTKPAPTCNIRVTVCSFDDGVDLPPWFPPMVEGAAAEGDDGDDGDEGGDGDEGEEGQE

[2] = target: B4; assay: native gel or EMSA; TRFH domain added to the ½DS-EBNA1 complex; binding buffer lowered to 100 mM KCl, highest TRFH 10 μM (1000-fold excess); under standard conditions only a weak supershift
[3] = target: B2; assay: as above
full-length TRF2 = target: T2, full-length TRF2 (UniProt Q15554 1-542); assay: native gel or EMSA; EBNA1 DBD pre-formed on the 60 bp ½DS DNA probe (5 nM, IRD700), TRF2 and then Rap1 added; 10 mM HEPES pH 7.5, 300 mM KCl, 5 mM MgCl2, 1 mM ZnCl2, 5 mM BME, 0.05% NP-40, 5% glycerol; 1.4% agarose gel
T2 construct: also called TERF2; source: E. coli, autoinduction medium, purified (Ni-NTA, Superdex 75); not shown: His6-SUMO, N-terminal, cleaved
T2 sequence (looked up): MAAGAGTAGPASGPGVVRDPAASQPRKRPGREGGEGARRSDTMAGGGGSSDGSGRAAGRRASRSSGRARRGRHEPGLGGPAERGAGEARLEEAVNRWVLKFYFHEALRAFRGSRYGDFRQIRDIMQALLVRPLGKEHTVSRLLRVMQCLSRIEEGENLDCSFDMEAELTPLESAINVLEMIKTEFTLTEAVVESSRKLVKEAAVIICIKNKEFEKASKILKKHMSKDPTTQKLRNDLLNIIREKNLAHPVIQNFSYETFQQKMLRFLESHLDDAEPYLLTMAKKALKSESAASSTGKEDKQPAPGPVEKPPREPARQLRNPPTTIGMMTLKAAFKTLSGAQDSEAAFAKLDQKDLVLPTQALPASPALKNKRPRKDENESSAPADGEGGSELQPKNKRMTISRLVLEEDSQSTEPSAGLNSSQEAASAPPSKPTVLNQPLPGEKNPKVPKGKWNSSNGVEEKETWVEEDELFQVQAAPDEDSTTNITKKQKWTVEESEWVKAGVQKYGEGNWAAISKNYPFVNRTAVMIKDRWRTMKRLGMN

full-length Rap1 = target: T3, full-length Rap1 (human, UniProt Q9NYB0 1-399); assay: as above
T3 construct: also called TERF2IP; source: E. coli, autoinduction medium, purified (Ni-NTA, Superdex 75); not shown: His6-SUMO, N-terminal, cleaved
T3 sequence (looked up): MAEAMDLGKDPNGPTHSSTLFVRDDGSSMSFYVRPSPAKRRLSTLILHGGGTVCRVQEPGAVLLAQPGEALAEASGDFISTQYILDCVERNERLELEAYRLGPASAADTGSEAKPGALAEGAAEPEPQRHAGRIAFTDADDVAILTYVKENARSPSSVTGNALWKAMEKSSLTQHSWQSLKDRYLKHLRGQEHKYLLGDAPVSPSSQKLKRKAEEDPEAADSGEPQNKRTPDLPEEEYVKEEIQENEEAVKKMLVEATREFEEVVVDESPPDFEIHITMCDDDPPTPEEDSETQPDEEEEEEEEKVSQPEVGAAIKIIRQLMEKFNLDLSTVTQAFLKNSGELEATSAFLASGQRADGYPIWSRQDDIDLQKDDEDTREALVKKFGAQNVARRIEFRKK

[4] = target: B1; assay: native gel or EMSA; pre-assembled TRF2-Rap1 complex (glycerol gradient) serially diluted onto pre-assembled ½DS-EBNA1 complex (10X stock 200 nM EBNA1, 50 nM ½DS DNA); binding buffer with 300 mM KCl; 1.4% agarose gel

## B1
[1]
  fold weaker than with WT EBNA1: ~2 fold

## B2
[2]
  binding result: binds

B3: EBNA1 459–607 (domain or fragment)
chain: RKKGGWFGKHRGQGGSNPKFENIAEGLRALLARSHVERTTDEGTWVAGVFVYGGSKTSLYNLRRGTALAIPQCRLTPLSRLPFGMAPGPGPQPGPLRESIVCYFMVFLQTHIFAEVLKDAIKDLVMTKPAPTCNIRVTVCSFDDGVDLP
notes: also called shorter EBNA1 459–607; core structured DBD; source: E. coli (all constructs), purified
[3]
  binding result: binds

## B4
full-length TRF2
  binding result: binds
full-length Rap1
  binding result: binds

B5: EBNA1ΔGA (Δ90–325), wild type (natural protein)
chain: MSDEGPGTGPGNGLGEKGDTSGPEGSGGSGPQRRGGDNHGRGRGRGRGRGGGRPGAPGGSGSGPRHRDGVRRPQKRPSCIGCKGTHGGTGGGRGRGGSGGRGRGGSGGRGRGGSGGRRGRGRERARGGSRERARGRGRGRGEKRPRSPSSQSSSSGSPPRRPPPGRRPFFHPVGEADYFEYHQEGGPDGEPDVPPGAIEQGPADDPGEGPSTGPRGQGDGGRRKKGGWFGKHRGQGGSNPKFENIAEGLRALLARSHVERTTDEGTWVAGVFVYGGSKTSLYNLRRGTALAIPQCRLTPLSRLPFGMAPGPGPQPGPLRESIVCYFMVFLQTHIFAEVLKDAIKDLVMTKPAPTCNIRVTVCSFDDGVDLPPWFPPMVEGAAAEGDDGDDGDEGGDGDEGEEGQE
notes: also called WT EBNA1; "full-length" EBNA1; source: E. coli, autoinduction medium, purified (Ni-NTA, Superdex 75); not shown: His6-SUMO, N-terminal, cleaved
[4]
  binding result: binds
